Conditions: Aspergillus oryzae (strain ATCC 42149 / RIB 40), 25 °C, GdnHCl, Absorbance, reversible: yes, whole UniProt chain shown

B1: Guanyl-specific ribonuclease T1 wild type, P00651 (protein)
chain: MMYSKLLTLTTLLLPTALALPSLVERACDYTCGSNCYSSSDVSTAQAAGYQLHEDGETVGSNSYPHKYNNYEGFDFSVSSPYYEWPILSSGDVYSGGSPGADRVVFNENNQLAGVITHTGASGNNFVECT
With B1 the denaturant m value (pH 3, beta-alanine 0.1 M) was 1.85 kcal/mol/M, the “denaturant midpoint (higher = more stable)” value (from here on “denaturant midpoint”) (pH 3, beta-alanine 0.1 M) was 2.42 M and the unfolding free energy (pH 3, beta-alanine 0.1 M) was 4.48 kcal/mol. The denaturant m value (pH 3.5, beta-alanine 0.1 M) was 1.7 kcal/mol/M, the “denaturant midpoint” value (pH 3.5, beta-alanine 0.1 M) was 3.4 M and the unfolding free energy (pH 3.5, beta-alanine 0.1 M) was 5.78 kcal/mol. For the same protein, the denaturant m value (pH 6, Bis-Tris 0.1 M) was 1.36 kcal/mol/M, the “denaturant midpoint” value (pH 6, Bis-Tris 0.1 M) was 6.49 M and the unfolding free energy (pH 6, Bis-Tris 0.1 M) was 8.82 kcal/mol. For the same protein, the denaturant m value (pH 7, HEPES 0.1 M) was 1.28 kcal/mol/M, the “denaturant midpoint” value (pH 7, HEPES 0.1 M) was 7.26 M and the unfolding free energy (pH 7, HEPES 0.1 M) was 9.26 kcal/mol. The denaturant m value (pH 8.5, taurine 0.1 M) was 1.21 kcal/mol/M, the “denaturant midpoint” value (pH 8.5, taurine 0.1 M) was 7.69 M and the unfolding free energy (pH 8.5, taurine 0.1 M) was 9.3 kcal/mol.
